Experiments:
[1] = biological target: 구제역 바이러스 혈청형 O 배양액(cal1~cal4) (Foot-and-mouth disease virus serotype O); assay: sandwich ELISA, cal1, 1E58 coat 1 ug/ml, 1E58-HRP 0.4 ug/ml, 450 nm
[2] = biological target: 구제역 바이러스 혈청형 O 배양액(cal1~cal4) (Foot-and-mouth disease virus serotype O); assay: sandwich ELISA, cal1, 1E58 coat 2 ug/ml, 1E58-HRP 0.8 ug/ml, 450 nm
[3] = biological target: 구제역 바이러스 혈청형 O 배양액(cal1~cal4) (Foot-and-mouth disease virus serotype O); assay: sandwich ELISA, cal1, 1E58 coat 8 ug/ml, 1E58-HRP 0.6 ug/ml, 450 nm
[4] = biological target: 구제역 바이러스 혈청형 O 배양액(cal1~cal4) (Foot-and-mouth disease virus serotype O); assay: sandwich ELISA, cal2, 1E58 coat 1 ug/ml, 1E58-HRP 0.6 ug/ml, 450 nm
[5] = biological target: 구제역 바이러스 혈청형 O 배양액(cal1~cal4) (Foot-and-mouth disease virus serotype O); assay: sandwich ELISA, cal2, 1E58 coat 2 ug/ml, 1E58-HRP 0.6 ug/ml, 450 nm
[6] = biological target: 구제역 바이러스 혈청형 O 배양액(cal1~cal4) (Foot-and-mouth disease virus serotype O); assay: sandwich ELISA, cal2, 1E58 coat 4 ug/ml, 1E58-HRP 0.2 ug/ml, 450 nm
[7] = biological target: 구제역 바이러스 혈청형 O 배양액(cal1~cal4) (Foot-and-mouth disease virus serotype O); assay: sandwich ELISA, cal2, 1E58 coat 4 ug/ml, 1E58-HRP 0.8 ug/ml, 450 nm
[8] = biological target: 구제역 바이러스 혈청형 O 배양액(cal1~cal4) (Foot-and-mouth disease virus serotype O); assay: sandwich ELISA, cal4, 1E58 coat 4 ug/ml, 1E58-HRP 0.8 ug/ml, 450 nm
[9] = biological target: FMDV 혈청형 A A22 Iraq (Foot-and-mouth disease virus serotype A); assay: sandwich ELISA, 1E58 coat 4 ug/ml, 1E58-HRP 0.3 ug/ml, virus culture fluid
[10] = biological target: FMDV 혈청형 A Iran05 (Foot-and-mouth disease virus serotype A); assay: as above
[11] = biological target: FMDV 혈청형 A Malaysia97 (Foot-and-mouth disease virus serotype A); assay: as above
[12] = biological target: FMDV 혈청형 A 연천주 (Foot-and-mouth disease virus serotype A); assay: as above
[13] = biological target: FMDV 혈청형 A 포천주 (Foot-and-mouth disease virus serotype A); assay: as above
[14] = biological target: FMDV 혈청형 Asia1 CAM/9/80 (Foot-and-mouth disease virus serotype Asia1); assay: as above
[15] = biological target: FMDV 혈청형 Asia1 MOG/05 (Foot-and-mouth disease virus serotype Asia1); assay: as above
[16] = biological target: FMDV 혈청형 Asia1 Shamir (Foot-and-mouth disease virus serotype Asia1); assay: as above
[17] = biological target: FMDV 혈청형 C C3/Resende/BRA/55 (Foot-and-mouth disease virus serotype C); assay: as above
[18] = biological target: FMDV 혈청형 O Campos (Foot-and-mouth disease virus serotype O); assay: as above
[19] = biological target: FMDV 혈청형 O O/Hapcheon/KOR/2014 (Foot-and-mouth disease virus serotype O); assay: as above
[20] = biological target: FMDV 혈청형 O O1 Manisa (Foot-and-mouth disease virus serotype O); assay: as above
[21] = biological target: FMDV 혈청형 O Primorsky (Foot-and-mouth disease virus serotype O); assay: as above
[22] = biological target: FMDV 혈청형 O Yang-Ju (Foot-and-mouth disease virus serotype O); assay: as above
[23] = biological target: FMDV 혈청형 O Yunlin/Taiwan/97 (Foot-and-mouth disease virus serotype O); assay: as above
[24] = biological target: FMDV 혈청형 O 김제 (Foot-and-mouth disease virus serotype O); assay: as above
[25] = biological target: FMDV 혈청형 O 보은 1차 (Foot-and-mouth disease virus serotype O); assay: as above
[26] = biological target: FMDV 혈청형 O 정읍 (Foot-and-mouth disease virus serotype O); assay: as above
[27] = biological target: FMDV 혈청형 O 진천 (Foot-and-mouth disease virus serotype O); assay: as above
[28] = biological target: FMDV 혈청형 SAT1 SAT1/BOT/1/68 (Foot-and-mouth disease virus serotype SAT1); assay: as above
[29] = biological target: FMDV 혈청형 SAT2 SAT2/ZIM/5/81 (Foot-and-mouth disease virus serotype SAT2); assay: as above
[30] = biological target: FMDV 혈청형 SAT3 SAT3/ZIM/4/81 (Foot-and-mouth disease virus serotype SAT3); assay: as above

B1: 단클론항체 1E58 (antibody, V domains shown)
VH: EFQLQQSRPELAKPGASVKISCKTSGHTFTTYTMHWVKQSHVKSLEWIGCFNPNNGGATYNQKFKGKATLTMDKSSNTAYVEVRSLTSDDSAVYYCAYGNYVNFDYWGQGTTLTVSS
VL: DIVLTQSPASLAVSLGQRATISYRASKSVSTSGYSYMHWNQQKPGQPPRLLIYLVSNLESGVPARFSGSGSGTDFTLNIHPVEEEDAATYYCQHIRELTRSEGGPSWKN
- O.D [1]: 2.43 O.D
- O.D [2]: 4 O.D
- O.D [3]: 3.27 O.D
- O.D [4]: 1.55 O.D
- O.D [5]: 3.42 O.D
- O.D [6]: 2.09 O.D
- O.D [7]: 3.75 O.D
- O.D [8]: 1.46 O.D
- O.D (450nm) [9]: 3.79 O.D
- O.D (450nm) [10]: 4 O.D
- O.D (450nm) [11]: 4 O.D
- O.D (450nm) [12]: 3.5 O.D
- O.D (450nm) [13]: 3.87 O.D
- O.D (450nm) [14]: 4 O.D
- O.D (450nm) [15]: 3.85 O.D
- O.D (450nm) [16]: 4 O.D
- O.D (450nm) [17]: 3.75 O.D
- O.D (450nm) [18]: 3.96 O.D
- O.D (450nm) [19]: 3.99 O.D
- O.D (450nm) [20]: 4 O.D
- O.D (450nm) [21]: 4 O.D
- O.D (450nm) [22]: 4 O.D
- O.D (450nm) [23]: 4 O.D
- O.D (450nm) [24]: 4 O.D
- O.D (450nm) [25]: 3.64 O.D
- O.D (450nm) [26]: 3.86 O.D
- O.D (450nm) [27]: 4 O.D
- O.D (450nm) [28]: 2.22 O.D
- O.D (450nm) [29]: 1.95 O.D
- O.D (450nm) [30]: 3.6 O.D
